Reference: US20070111259A1 (BIOSITE, published 2007)
One block for each binder: values may come before it.

Tests used:
[1] = target: T1, biotinylated interleukin 8 (IL8-biotin) (human, UniProt P10145 21-99, reacted with biotin-XX-NHS ester (1 mM); labelled residues not stated); assay: fraction of Fab bound by a large excess of biotin-IL-8, removed on avidin magnetic latex
T1 construct: mature; also called IL-8 labeled with biotin; biotinylated IL-8
T1 sequence: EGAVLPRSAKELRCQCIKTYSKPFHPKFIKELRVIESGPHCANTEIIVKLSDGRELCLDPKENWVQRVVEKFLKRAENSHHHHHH

[2] = target: T1, biotinylated interleukin 8 (IL8-biotin); assay: solution equilibrium with 1e-10 M biotin-IL-8, B/F vs B plot, free Fab by sandwich ELISA
Description: The equilibrium binding constants of individual monoclonal antibodies were determined by analysis of the total and free antibody concentrations after a binding equilibrium was established in the presence of biotinylated IL-8 at 10⁻¹⁰ M in a 1% solution of bovine serum albumin buffered at pH 8.0. […] The supernatant solution was removed from the microtiter wells containing the magnetic particles and the antibody concentration was determined. The concentration of total antibody added to the individual wells was determined by quantifying the antibody in a sample that was not mixed with IL-8. […] When determining the concentration of total antibody in an equilibrium mixture, the antibody concentration is the amount of total antibody in the mixture determined from the assay described below multiplied by the immunoreactive fraction. Similarly, when calculating the free antibody in an equilibrium mixture after the removal of IL-8, the non-immunoreactive fraction of antibody is subtracted from the free antibody concentration determined by the assay described below. The bound fraction, B, is determined by subtracting the free immunoreactive antibody concentration in the mixture, F, from the total immunoreactive antibody concentration in the mixture. […]

% Immunoreactive Protein [1]: 67% | Ka [2]: 6.6e+10 M⁻¹
B1: M1-21 (Fab)
heavy: QVQLVQSGGGVVQPGKSLRLSCAASGFTFSYYGMHWVRQVPGKGLEWVAAVWYDGSTTYSPDSVKGRFTISRDDSKNTLYLQMSSLRAEDTAVYYCARDRVGLFDYWGQGTLVTVSSASTKGPSVFPLAPSSKSTSGGTAALGCLVKDYFPEPVTVSWNSGALTSGVHTFPAVLQSSGLYSLSSVVTVPSSSLGTQTYICNVNHKPSNTKVDKKAEPKSHHHHHH
light: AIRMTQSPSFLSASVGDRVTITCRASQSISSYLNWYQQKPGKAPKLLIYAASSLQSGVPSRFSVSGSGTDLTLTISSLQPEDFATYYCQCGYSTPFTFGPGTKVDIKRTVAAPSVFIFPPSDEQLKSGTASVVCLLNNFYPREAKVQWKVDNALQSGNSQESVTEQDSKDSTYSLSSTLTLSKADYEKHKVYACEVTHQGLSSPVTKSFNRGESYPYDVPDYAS
notes: also called M1_21H; M1_21L

% Immunoreactive Protein [1]: 90%
B2: M1-10 (Fab)
heavy: QVQLVQSGGGLVHPGGSLRLSCEGSGFIFRNHPIHWVRQAPGKGLEWVSVSGIGGDTYYADSVKGRFSISRDNAKNSLYLQMNSLRAEDMAVYYCAREYYYGSGSYRVDYYYYGMDVWGQGTTVTVSSASTKGPSVFPLAPSSKSTSGGTAALGCLVKDYFPEPVTVSWNSGALTSGVHTFPAVLQSSGLYSLSSVVTVPSSSLGTQTYICNVNHKPSNTKVDKKAEPKSHHHHHH
light: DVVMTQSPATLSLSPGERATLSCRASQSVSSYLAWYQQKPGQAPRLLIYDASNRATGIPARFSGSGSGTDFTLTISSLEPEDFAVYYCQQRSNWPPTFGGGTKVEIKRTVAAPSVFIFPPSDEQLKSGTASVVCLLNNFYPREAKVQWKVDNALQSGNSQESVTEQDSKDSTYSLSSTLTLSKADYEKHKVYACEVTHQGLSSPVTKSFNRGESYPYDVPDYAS
notes: also called M1_10H; M1_10L
